According to article PMC11522559:

Tests used:
[1] = molecular target: Alexa647-labeled microtubules (porcine brain tubulin), antiparallel overlaps (porcine) (UniProt P02550)
[2] = molecular target: Alexa647-labeled microtubules (porcine brain tubulin), antiparallel overlaps (porcine) (UniProt P02550); remark: listed apart in the source

UniProt P02550, sequence (P02550 whole entry): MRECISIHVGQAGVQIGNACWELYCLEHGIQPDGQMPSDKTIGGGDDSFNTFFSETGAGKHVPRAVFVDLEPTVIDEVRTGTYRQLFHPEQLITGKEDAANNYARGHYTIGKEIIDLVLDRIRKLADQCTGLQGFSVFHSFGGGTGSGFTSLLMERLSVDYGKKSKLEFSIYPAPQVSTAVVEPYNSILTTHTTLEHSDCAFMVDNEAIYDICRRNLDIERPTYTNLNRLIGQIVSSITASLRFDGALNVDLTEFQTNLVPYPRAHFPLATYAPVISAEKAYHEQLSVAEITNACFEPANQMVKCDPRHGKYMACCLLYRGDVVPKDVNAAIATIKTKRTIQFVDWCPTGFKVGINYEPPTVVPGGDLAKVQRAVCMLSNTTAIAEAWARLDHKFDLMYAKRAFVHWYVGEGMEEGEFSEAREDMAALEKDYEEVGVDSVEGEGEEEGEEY

| Substance | fold decrease of affinity against unphosphorylated PRC1 [1] [fold] | Kd [2] [nM] |
| --- | --- | --- |
| CDK1-phosphorylated PRC1-Alexa546 (human PRC1 isoform 2) (from UniProt O43663-2 1-576) (natural protein) | > 10 | – |
| PLK1-phosphorylated PRC1-Alexa546 (human PRC1 isoform 2) (from UniProt O43663-4 1-606) (natural protein) | – | 9.6 |
